The source of these data is paper PMC7299630.

The series concerns the target DAP3-GST (UniProt P51398 1-398). In words: EMSA.

B1: HTR2C RNA duplex probe (structured_RNA)
RNA: AUCAUGCACCUCUGCGCUAUAUCGCUGGAUCGGUAUGUAGCAAUACGUAAUCCUAUUGAGCAUAGCCGUUUCAAUUCGCGGACUAAGGCCAUCAUGAAGAUUGCUAUUGUUUGGGCAAUUUCUAUAGGUAAAUAAAACUUUUUGGCCAUAAGAAUUGCAGCGGCUAUGCUCAAUACUUUCGGAUUAUGUACUGUGAACAACGUACAGACGUCGACUGGUAACAUUUGCGUUUGAUCGGGUUCU
As to B1, the binding result is given as “no binding”.

B2: MAGT1 RNA duplex probe (structured_RNA)
RNA: GCUAAUUUUUGUGUUUUUAGUAGAGACCUCGAGGUCUCUACUAAAAAUAUGAAAAUUAGC
As for B2, the binding result is reported as “no binding”.
